Test results reported in publication PMC6150488 (Cell reports, 2018).

Molecular target: glycogen-synthase kinase 3β (GSK3β) (UniProt P49841 1-420)
Test: SPR

- Kd: 165 nM
B1: Nav1.6 C-terminal tail (domain or fragment)
chain: LENFSVATEESADPLSEDDFETFYEIWEKFDPDATQFIEYCKLADFADALEHPLRVPKPNTIELIAMDLPMVSGDRIHCLDILFAFTKRVLGDSGELDILRQQMEERFVASNPSKVSYEPITTTLRRKQEEVSAVVLQRAYRGHLARRGFICKKTTSNKLENGGTHREKKESTPSTASLPSYDSVTKPEKEKQQRAEEGRRERAKRQKEVRESKC
